Source: FireProtDB (doi:10.1016/0167-4838(91)90474-e)
Where “and” joins values, the source holds several entries; their conditions need not be identical. Equal values may be shown once.

Conditions: Gallus gallus, Absorbance, Sodium phosphate 0.06 M, reversible: yes, whole UniProt chain shown; for unfolding enthalpy (van 't Hoff): Thermal; for denaturant m value / denaturant midpoint (higher = more stable) / unfolding free energy: 25 °C, Urea

B1: Ovomucoid wild type, P01005 (protein)
chain: MAMAGVFVLFSFVLCGFLPDAAFGAEVDCSRFPNATDKEGKDVLVCNKDLRPICGTDGVTYTNDCLLCAYSIEFGTNISKEHDGECKETVPMNCSSYANTTSEDGKVMVLCNRAFNPVCGTDGVTYDNECLLCAHKVEQGASVDKRHDGGCRKELAAVSVDCSEYPKPDCTAEDRPLCGSDNKTYGNKCNFCNAVVESNGTLTLSHFGKC
unfolding enthalpy (van 't Hoff) (pH 5): 34 kcal/mol and 30 kcal/mol
unfolding enthalpy (van 't Hoff) (pH 5, transition: 3): 30 kcal/mol and 44 kcal/mol
denaturant m value (pH 7): 1.35 kcal/mol/M and 1.15 kcal/mol/M
denaturant midpoint (higher = more stable) (pH 7): 2.7 M and 2.8 M
unfolding free energy (pH 7): 4.65 kcal/mol and 3.39 kcal/mol
denaturant m value (pH 7, transition: 3): 1.01 kcal/mol/M and 1.03 kcal/mol/M and 1.02 kcal/mol/M
denaturant midpoint (higher = more stable) (pH 7, transition: 3): 7.3 M and 2.8 M and 6.9 M
unfolding free energy (pH 7, transition: 3): 7.66 kcal/mol and 3.39 kcal/mol and 7.42 kcal/mol
unfolding enthalpy (van 't Hoff) (pH 7): 58 kcal/mol and 37 kcal/mol
unfolding enthalpy (van 't Hoff) (pH 7, transition: 3): 82 kcal/mol and 54 kcal/mol and 46 kcal/mol
